{"source": "patent US20030186281A1", "about": "“Modified tetracycline repressor protein compositions and methods of use” (priority 2001, published 2003)", "molecules": {"B1": {"name": "TetRrev25/43: revTetR(BD) L17F E19- G24G (protein)", "chain": "MSRLDKSKVINSALELFNVGIEGLTTRKLAQKLGVEQPTLYWHVKNKRALLDALAVEILARHHDYSLPAAGESWQSFLRNNAMSFRRALLRYRDGAKVHLGTRPDEKQYDTVETQLRFMTENGFSLRDGLYAISAVSHFTLGAVLEQQEHTAALTDRPAAPDENLPPLLREALQIMDSDDGEQAFLHGLESLIRGFEVQLTALLQIV", "modifications": "Modified tetracycline repressor", "notes": "revTetR(BD) L17F E19- G24G"}, "B2": {"name": "TetRrev29/25: revTetR(BD) G21- I22- E23- G24S (protein)", "chain": "MSRLDKSKVINSALELLNEVSLTTRKLAQKLGVEQPTLYWHVKNKRALLDALAVEILARHHDYSLPAAGESWQSFLRNNAMSFRRALLRYRDGAKVHLGTRPDEKQYDTVETQLRFMTENGFSLRDGLYAISAVSHFTLGAVLEQQEHTAALTDRPAAPDENLPPLLREALQIMDSDDGEQAFLHGLESLIRGFEVQLTALLQIV", "modifications": "Modified tetracycline repressor", "notes": "revTetR(BD) G21- I22- E23- G24S"}, "B3": {"name": "TetRrev4/6-27: revTetR(BD) V99R (protein)", "chain": "MSRLDKSKVINSALELLNEVGIEGLTTRKLAQKLGVEQPTLYWHVKNKRALLDALAVEILARHHDYSLPAAGESWQSFLRNNAMSFRRALLRYRDGAKRHLGTRPDEKQYDTVETQLRFMTENGFSLRDGLYAISAVSHFTLGAVLEQQEHTAALTDRPAAPDENLPPLLREALQIMDSDDGEQAFLHGLESLIRGFEVQLTALLQIV", "modifications": "Modified tetracycline repressor", "notes": "revTetR(BD) V99R"}, "B4": {"name": "TetRrev28/23: revTetR(BD) A13A L14S N18K E23V (protein)", "chain": "B3 chain with L14S, N18K, E23V, R99V", "modifications": "Modified tetracycline repressor", "notes": "revTetR(BD) A13A L14S N18K E23V"}, "B5": {"name": "TetRrev1/34: revTetR(BD) L17S E23K (protein)", "chain": "B3 chain with L17S, E23K, R99V", "modifications": "Modified tetracycline repressor", "notes": "revTetR(BD) L17S E23K"}, "B6": {"name": "TetRrev22/5: revTetR(BD) E15V L17A E19D (protein)", "chain": "B3 chain with E15V, L17A, E19D, R99V", "modifications": "Modified tetracycline repressor", "notes": "revTetR(BD) E15V L17A E19D"}, "B7": {"name": "TetRrev28/36: revTetR(BD) N18I E19G V20G E23V (protein)", "chain": "B3 chain with N18I, E19G, V20G, E23V, R99V", "modifications": "Modified tetracycline repressor", "notes": "revTetR(BD) N18I E19G V20G E23V"}, "B8": {"name": "TetRrev29/9: revTetR(BD) L17V N18Y G21G I22T (protein)", "chain": "B3 chain with L17V, N18Y, I22T, R99V", "modifications": "Modified tetracycline repressor", "notes": "revTetR(BD) L17V N18Y G21G I22T"}, "B9": {"name": "TetRrev28/26: revTetR(BD) L14T N18Y G21G I22F (protein)", "chain": "B3 chain with L14T, N18Y, I22F, R99V", "modifications": "Modified tetracycline repressor", "notes": "revTetR(BD) L14T N18Y G21G I22F"}, "B10": {"name": "TetRrev28/46: revTetR(BD) A13A V20G G21R I22N G24G (protein)", "chain": "B3 chain with V20G, G21R, I22N, R99V", "modifications": "Modified tetracycline repressor", "notes": "revTetR(BD) A13A V20G G21R I22N G24G"}, "B11": {"name": "TetRrev28/27: revTetR(BD) L17G I22M (protein)", "chain": "B3 chain with L17G, I22M, R99V", "modifications": "Modified tetracycline repressor", "notes": "revTetR(BD) L17G I22M"}, "B12": {"name": "TetRrev28/48: revTetR(BD) N18Y V20D I22T W43S (protein)", "chain": "B3 chain with N18Y, V20D, I22T, W43S, R99V", "modifications": "Modified tetracycline repressor", "notes": "revTetR(BD) N18Y V20D I22T W43S"}, "B13": {"name": "TetRrev28/49: revTetR(BD) N18Y V20D I22T (protein)", "chain": "B3 chain with N18Y, E19D, I22T, R99V", "modifications": "Modified tetracycline repressor", "notes": "revTetR(BD) N18Y V20D I22T"}, "B14": {"name": "TetRrev19/48: revTetR(BD) N18K E19D V20L I22N E23A (protein)", "chain": "B3 chain with N18K, E19D, V20L, I22N, E23A, R99V", "modifications": "Modified tetracycline repressor", "notes": "revTetR(BD) N18K E19D V20L I22N E23A"}, "B15": {"name": "TetRrev28/40: revTetR(BD) L14S N18Y I22F L25L (protein)", "chain": "B3 chain with L14S, N18Y, I22F, R99V", "modifications": "Modified tetracycline repressor", "notes": "revTetR(BD) L14S N18Y I22F L25L"}, "B16": {"name": "TetRrev28/41: revTetR(BD) L17L N18D V20R I22N (protein)", "chain": "B3 chain with N18D, V20R, I22N, R99V", "modifications": "Modified tetracycline repressor", "notes": "revTetR(BD) L17L N18D V20R I22N"}, "B17": {"name": "TetRrev28/16: revTetR(BD) L14L E15A L17G L25V (protein)", "chain": "B3 chain with E15A, L17G, L25V, R99V", "modifications": "Modified tetracycline repressor", "notes": "revTetR(BD) L14L E15A L17G L25V"}, "B18": {"name": "TetRrev29/24: revTetR(BD) E15V L17F N18Y I22M E23K (protein)", "chain": "B3 chain with E15V, L17F, N18Y, I22M, E23K, R99V", "modifications": "Modified tetracycline repressor", "notes": "revTetR(BD) E15V L17F N18Y I22M E23K"}, "B19": {"name": "TetRrev29/17: revTetR(BD) L17S E23D (protein)", "chain": "B3 chain with L17S, E23D, R99V", "modifications": "Modified tetracycline repressor", "notes": "revTetR(BD) L17S E23D"}, "B20": {"name": "TetRrev3/38: revTetR(BD) L17H I22F E23G (protein)", "chain": "B3 chain with L17H, I22F, E23G, R99V", "modifications": "Modified tetracycline repressor", "notes": "revTetR(BD) L17H I22F E23G"}, "B21": {"name": "TetRrev28/30: revTetR(BD) V20G G21A I22I E23G (protein)", "chain": "B3 chain with V20G, G21A, E23G, R99V", "modifications": "Modified tetracycline repressor", "notes": "revTetR(BD) V20G G21A I22I E23G"}, "B22": {"name": "TetRrev28/8: revTetR(BD) L14S N18Y I22F L25L (protein)", "chain": "B3 chain with L14S, N18Y, I22F, R99V", "modifications": "Modified tetracycline repressor", "notes": "as for B15"}, "B23": {"name": "TetRrev28/31: revTetR(BD) A13A V20G G21R I22N G24G (protein)", "chain": "B3 chain with V20G, G21R, I22N, R99V", "modifications": "Modified tetracycline repressor", "notes": "as for B10"}}, "system": "tet operator sequence", "experiment": "β-galactosidase activity of a tetracycline-regulated promoter in transformed E. coli with revTetR, in the presence and absence of anhydrotetracycline (atc)", "format": "cell-based, Escherichia coli", "settings": "for β-Galactosidase Activity, Cultured Without ATC: RevTetR isolate cultured in the absence of anhydrotetracycline (ATC); for β-Galactosidase Activity, Cultured With ATC: RevTetR isolate cultured in the presence of anhydrotetracycline (ATC)", "in_short": "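TetR(BD) chimera mutants (TetR(B) residues 1–50, TetR(D) 51–208) expressed in E. coli regulating a tet operator-controlled lacZ. β-Galactosidase measured in Miller units at 28 °C and 37 °C with and without anhydrotetracycline; reported as percent of maximal expression without Tet repressor.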", "note": "Where a chain is given by its changes, count along the chain named. In names and notes the source's numbering stands."}
{"molecule": "B1", "values": [{"measurement": "β-Galactosidase Activity, Cultured Without ATC", "result": 99.1241}, {"measurement": "β-Galactosidase Activity, Cultured With ATC", "result": 1.7535}]}
{"molecule": "B2", "values": [{"measurement": "β-Galactosidase Activity, Cultured Without ATC", "result": 92.9327}, {"measurement": "β-Galactosidase Activity, Cultured With ATC", "result": 3.112}]}
{"molecule": "B3", "values": [{"measurement": "β-Galactosidase Activity, Cultured Without ATC", "result": 108}, {"measurement": "β-Galactosidase Activity, Cultured With ATC", "result": 49}]}
{"molecule": "B4", "values": [{"measurement": "β-Galactosidase Activity, Cultured Without ATC", "result": 92.2055}, {"measurement": "β-Galactosidase Activity, Cultured With ATC", "result": 2.9867}]}
{"molecule": "B5", "values": [{"measurement": "β-Galactosidase Activity, Cultured Without ATC", "result": 79.3141}, {"measurement": "β-Galactosidase Activity, Cultured With ATC", "result": 0.9226}]}
{"molecule": "B6", "values": [{"measurement": "β-Galactosidase Activity, Cultured Without ATC", "result": 92.312}, {"measurement": "β-Galactosidase Activity, Cultured With ATC", "result": 0.9755}]}
{"molecule": "B7", "values": [{"measurement": "β-Galactosidase Activity, Cultured Without ATC", "result": 65.5335}, {"measurement": "β-Galactosidase Activity, Cultured With ATC", "result": 1.0579}]}
{"molecule": "B8", "values": [{"measurement": "β-Galactosidase Activity, Cultured Without ATC", "result": 74.4357}, {"measurement": "β-Galactosidase Activity, Cultured With ATC", "result": 11.772}]}
{"molecule": "B9", "values": [{"measurement": "β-Galactosidase Activity, Cultured Without ATC", "result": 89.3918}, {"measurement": "β-Galactosidase Activity, Cultured With ATC", "result": 3.8006}]}
{"molecule": "B10", "values": [{"measurement": "β-Galactosidase Activity, Cultured Without ATC", "result": 95.9627}, {"measurement": "β-Galactosidase Activity, Cultured With ATC", "result": 1.1482}]}
{"molecule": "B11", "values": [{"measurement": "β-Galactosidase Activity, Cultured Without ATC", "result": 95.0152}, {"measurement": "β-Galactosidase Activity, Cultured With ATC", "result": 1.6907}]}
{"molecule": "B12", "values": [{"measurement": "β-Galactosidase Activity, Cultured Without ATC", "result": 99.3107}, {"measurement": "β-Galactosidase Activity, Cultured With ATC", "result": 1.1587}]}
{"molecule": "B13", "values": [{"measurement": "β-Galactosidase Activity, Cultured Without ATC", "result": 62.5137}, {"measurement": "β-Galactosidase Activity, Cultured With ATC", "result": 8.2716}]}
{"molecule": "B14", "values": [{"measurement": "β-Galactosidase Activity, Cultured Without ATC", "result": 79.9581}, {"measurement": "β-Galactosidase Activity, Cultured With ATC", "result": 1.1143}]}
{"molecule": "B15", "values": [{"measurement": "β-Galactosidase Activity, Cultured Without ATC", "result": "91 .691"}, {"measurement": "β-Galactosidase Activity, Cultured With ATC", "result": 3.4834}]}
{"molecule": "B16", "values": [{"measurement": "β-Galactosidase Activity, Cultured Without ATC", "result": 15.4643}, {"measurement": "β-Galactosidase Activity, Cultured With ATC", "result": 5.6333}]}
{"molecule": "B17", "values": [{"measurement": "β-Galactosidase Activity, Cultured Without ATC", "result": 96.3269}, {"measurement": "β-Galactosidase Activity, Cultured With ATC", "result": 0.9453}]}
{"molecule": "B18", "values": [{"measurement": "β-Galactosidase Activity, Cultured Without ATC", "result": 85.5708}, {"measurement": "β-Galactosidase Activity, Cultured With ATC", "result": 7.9819}]}
{"molecule": "B19", "values": [{"measurement": "β-Galactosidase Activity, Cultured Without ATC", "result": 44.6409}, {"measurement": "β-Galactosidase Activity, Cultured With ATC", "result": 1.7738}]}
{"molecule": "B20", "values": [{"measurement": "β-Galactosidase Activity, Cultured Without ATC", "result": 97.043}, {"measurement": "β-Galactosidase Activity, Cultured With ATC", "result": 1.8287}]}
{"molecule": "B21", "values": [{"measurement": "β-Galactosidase Activity, Cultured Without ATC", "result": 55.1783}, {"measurement": "β-Galactosidase Activity, Cultured With ATC", "result": 3.7384}]}
{"molecule": "B22", "values": [{"measurement": "β-Galactosidase Activity, Cultured Without ATC", "result": 98.6289}, {"measurement": "β-Galactosidase Activity, Cultured With ATC", "result": 4.4123}]}
{"molecule": "B23", "values": [{"measurement": "β-Galactosidase Activity, Cultured Without ATC", "result": 99.8749}, {"measurement": "β-Galactosidase Activity, Cultured With ATC", "result": 1.1121}]}
